Reference: US20200347147A1 (Hoffmann-La Roche, published 2020)

Legend:
[1] = target: T1, human Carcinoembryonic antigen (CEA), also known as Carcinoembryonic antigen-related cell adhesion molecule 5 (human, UniProt P06731 35-685); assay: flow cytometry on LS-174T cells (~40 700 CEA binding sites)
T1 construct: whole, on cells; Expressed on the tumor cell lines MKN45, LS174T, HT29 and others, and on transiently transfected HEK293T cells; also called human CEA; CEACAM5
T1 sequence (looked up): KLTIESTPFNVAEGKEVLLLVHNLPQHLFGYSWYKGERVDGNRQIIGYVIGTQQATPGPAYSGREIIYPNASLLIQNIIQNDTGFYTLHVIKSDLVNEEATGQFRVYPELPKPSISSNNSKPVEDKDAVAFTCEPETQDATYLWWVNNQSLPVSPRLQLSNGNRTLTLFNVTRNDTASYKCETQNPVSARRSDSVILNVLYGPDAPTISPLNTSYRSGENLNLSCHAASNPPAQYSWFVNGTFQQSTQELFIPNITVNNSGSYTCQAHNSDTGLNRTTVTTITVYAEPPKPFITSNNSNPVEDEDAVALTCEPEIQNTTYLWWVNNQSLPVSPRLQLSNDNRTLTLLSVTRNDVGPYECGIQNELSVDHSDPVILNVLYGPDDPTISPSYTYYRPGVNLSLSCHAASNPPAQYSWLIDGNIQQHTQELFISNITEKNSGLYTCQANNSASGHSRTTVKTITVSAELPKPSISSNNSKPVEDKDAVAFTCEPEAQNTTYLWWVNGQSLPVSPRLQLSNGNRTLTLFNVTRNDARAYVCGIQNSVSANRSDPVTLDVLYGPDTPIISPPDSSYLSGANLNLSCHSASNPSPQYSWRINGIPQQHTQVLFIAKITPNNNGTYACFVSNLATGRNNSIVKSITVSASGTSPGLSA
Procedure: (§1) The binding of the TCB molecules used in Example 5A and B was tested on different CEA-expressing tumor and CD3-expressing Jurkat (DSMZ ACC 282) cells.
(§2) Briefly, cells were harvested, counted, checked for viability and re-suspended at 2×10⁶ cells/ml in FACS buffer (100 μl PBS 0.1% BSA). 100 μl of cell suspension (containing 0.2×10⁶ cells) were incubated in round-bottom 96-well plate for 30 min at 4° C. with increasing concentrations of the CEA IgG (31 pM-500 nM), washed twice with cold PBS 0.1% BSA, re-incubated for further 30 min at 4° C. with the FITC-conjugated AffiniPure F(ab′)2 Fragment goat anti-human IgG Fcg Fragment Specific secondary antibody (Jackson Immuno Research Lab FITC #109-096-008, 1:40 pre-diluted in PBS 0.1% BSA), washed twice with cold PBS 0.1% BSA and fixed using 150 μl PBS 0.1% BSA, containing 2% PFA and incubation at 4° C. for 20 min. Thereafter, cells were washed once for 8 min at 400×g, 4° C. and finally re-suspended in 150 μl FACS buffer for the FACS measurement. Fluorescence was measured using Miltenyi MACSQuant.

[2] = target: T1, human Carcinoembryonic antigen (CEA), …; assay: cell-based or functional assay
[3] = target: T1, human Carcinoembryonic antigen (CEA), …; assay: flow cytometry on MKN45 cells (~513 300 CEA binding sites)
Procedure: as §1, §2

[4] = target: T2, human CEACAM6 (human, UniProt P40199 35-320); assay: flow cytometry on transient HEK293T transfectants
T2 construct: whole, on cells
T2 sequence (looked up): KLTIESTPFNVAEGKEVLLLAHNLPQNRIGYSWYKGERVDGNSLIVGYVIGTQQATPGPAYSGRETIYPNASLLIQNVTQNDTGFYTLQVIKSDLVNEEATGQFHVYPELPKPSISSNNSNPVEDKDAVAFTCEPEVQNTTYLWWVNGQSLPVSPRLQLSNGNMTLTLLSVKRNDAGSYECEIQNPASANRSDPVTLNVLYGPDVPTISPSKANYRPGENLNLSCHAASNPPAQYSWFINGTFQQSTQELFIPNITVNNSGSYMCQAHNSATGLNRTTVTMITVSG
Procedure: (§3) Briefly, cells were harvested, counted, checked for viability and re-suspended at 1×10⁶ cells/ml in FACS buffer (100 μl PBS 0.1% BSA). 100 μl of the cell suspension (containing 0.1×10⁶ cells) were plated iton round-bottom 96-well plates and washed twice with 150 μl of cold PBS. Cells were stained for 30 min at 4° C., using a 1:5000 pre-diluted suspension of the fixable viability dye eFluor660 (eBioscience, #65-0864-14) in PBS. […] Cells were washed twice with cold PBS 0.1% BSA, re-incubated for further 30 min at 4° C. with the FITC-conjugated AffiniPure F(ab′)2 Fragment goat anti-human IgG Fcg Fragment Specific secondary antibody (Jackson Immuno Research Lab FITC #109-096-098, 1:50 pre-diluted in PBS 0.1% BSA), washed twice with cold PBS 0.1% BSA and fixed using 150 μl PBS 0.1% BSA, containing 2% PFA and incubation at 4° C. for 20 min. Thereafter, cells were washed once for 8 min at 400×g, 4° C. and finally re-suspended in 150 μl FACS buffer for the FACS measurement. Fluorescence was measured using BD FACS CantoII. Binding curves were obtained using GraphPadPrism6 (FIG. 20A).

[5] = target: T3, human CEACAM1 (human, UniProt P13688 35-526); assay: flow cytometry on transient HEK293T transfectants
T3 construct: whole, on cells
T3 sequence (looked up): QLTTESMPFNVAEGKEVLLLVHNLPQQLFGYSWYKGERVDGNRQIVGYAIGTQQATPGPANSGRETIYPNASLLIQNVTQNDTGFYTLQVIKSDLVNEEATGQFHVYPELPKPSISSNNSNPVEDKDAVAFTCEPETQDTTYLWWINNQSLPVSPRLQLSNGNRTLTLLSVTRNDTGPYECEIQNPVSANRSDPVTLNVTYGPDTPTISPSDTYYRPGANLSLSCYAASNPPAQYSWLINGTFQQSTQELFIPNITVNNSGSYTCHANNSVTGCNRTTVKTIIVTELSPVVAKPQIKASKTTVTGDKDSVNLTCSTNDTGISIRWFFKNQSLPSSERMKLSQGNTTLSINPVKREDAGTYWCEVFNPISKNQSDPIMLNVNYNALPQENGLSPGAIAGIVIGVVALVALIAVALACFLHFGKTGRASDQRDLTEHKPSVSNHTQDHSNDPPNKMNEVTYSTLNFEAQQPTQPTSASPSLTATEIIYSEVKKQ
Procedure: as §3

[6] = target: T1, human Carcinoembryonic antigen (CEA), …; assay: flow cytometry on CEA-expressing MKN45 cells, PE anti-human Fc secondary
Procedure: Briefly, cells were harvested, counted, checked for viability and re-suspended at 2×10⁶ cells/ml in FACS buffer (100 μl PBS 0.1% BSA). […] Binding curves and EC50 values were obtained and calculated using GraphPadPrism5 (FIG. 2, binding to MKN45 cells).

B1: CEA CD3 TCB molecule X (TCB of similar structure as molecule B, based on a different humanized CEA binder not based on T84.66) (bispecific antibody)
chain 1: not shown
chain 2: QVQLVQSGAEVKKPGASVKVSCKASGYTFTEFGMNWVRQAPGQGLEWMGWINTKTGEATYVEEFKGRVTFTTDTSTSTAYMELRSLRSDDTAVYYCARWDFAYYVEAMDYWGQGTTVTVSSASTKGPSVFPLAPSSKSTSGGTAALGCLVKDYFPEPVTVSWNSGALTSGVHTFPAVLQSSGLYSLSSVVTVPSSSLGTQTYICNVNHKPSNTKVDKKVEPKSCDKTHTCPPCPAPEAAGGPSVFLFPPKPKDTLMISRTPEVTCVVVDVSHEDPEVKFNWYVDGVEVHNAKTKPREEQYNSTYRVVSVLTVLHQDWLNGKEYKCKVSNKALGAPIEKTISKAKGQPREPQVCTLPPSRDELTKNQVSLSCAVKGFYPSDIAVEWESNGQPENNYKTTPPVLDSDGSFFLVSKLTVDKSRWQQGNVFSCSVMHEALHNHYTQKSLSLSPGK
chain 3: QAVVTQEPSLTVSPGGTVTLTCGSSTGAVTTSNYANWVQEKPGQAFRGLIGGTNKRAPGTPARFSGSLLGGKAALTLSGAQPEDEAEYYCALWYSNLWVFGGGTKLTVLSSASTKGPSVFPLAPSSKSTSGGTAALGCLVKDYFPEPVTVSWNSGALTSGVHTFPAVLQSSGLYSLSSVVTVPSSSLGTQTYICNVNHKPSNTKVDKKVEPKSC
chain 4: DIQMTQSPSSLSASVGDRVTITCKASAAVGTYVAWYQQKPGKAPKLLIYSASYRKRGVPSRFSGSGSGTDFTLTISSLQPEDFATYYCHQYYTYPLFTFGQGTKLEIKRTVAAPSVFIFPPSDEQLKSGTASVVCLLNNFYPREAKVQWKVDNALQSGNSQESVTEQDSKDSTYSLSSTLTLSKADYEKHKVYACEVTHQGLSSPVTKSFNRGEC
Which results are given for B1?
EC50 [1]: 11.7 nM; EC50 of T-cell mediated lysis of Kato III cells (LDH release, human PBMC, E:T 10:1), 48 h [2]: 8.23 nM; EC50 [3]: 27.9 nM

B2: CEA CD3 TCB molecule B, "2+1 IgG CrossFab, inverted" with charge modifications, humanized CEA binder (humanized variant 1) (bispecific antibody)
heavy 1: not shown
heavy 2: QVQLVQSGAEVKKPGSSVKVSCKASGFNIKDTYMHWVRQAPGQGLEWMGRIDPANGNSKYVPKFQGRVTITADTSTSTAYMELSSLRSEDTAVYYCAPFGYYVSDYAMAYWGQGTLVTVSSASTKGPSVFPLAPSSKSTSGGTAALGCLVEDYFPEPVTVSWNSGALTSGVHTFPAVLQSSGLYSLSSVVTVPSSSLGTQTYICNVNHKPSNTKVDEKVEPKSCDKTHTCPPCPAPEAAGGPSVFLFPPKPKDTLMISRTPEVTCVVVDVSHEDPEVKFNWYVDGVEVHNAKTKPREEQYNSTYRVVSVLTVLHQDWLNGKEYKCKVSNKALGAPIEKTISKAKGQPREPQVCTLPPSRDELTKNQVSLSCAVKGFYPSDIAVEWESNGQPENNYKTTPPVLDSDGSFFLVSKLTVDKSRWQQGNVFSCSVMHEALHNHYTQKSLSLSP
light 1: EIVLTQSPATLSLSPGERATLSCRAGESVDIFGVGFLHWYQQKPGQAPRLLIYRASNRATGIPARFSGSGSGTDFTLTISSLEPEDFAVYYCQQTNEDPYTFGQGTKLEIKRTVAAPSVFIFPPSDRKLKSGTASVVCLLNNFYPREAKVQWKVDNALQSGNSQESVTEQDSKDSTYSLSSTLTLSKADYEKHKVYACEVTHQGLSSPVTKSFNRGEC
light 2: EVQLLESGGGLVQPGGSLRLSCAASGFTFSTYAMNWVRQAPGKGLEWVSRIRSKYNNYATYYADSVKGRFTISRDDSKNTLYLQMNSLRAEDTAVYYCVRHGNFGNSYVSWFAYWGQGTLVTVSSASVAAPSVFIFPPSDEQLKSGTASVVCLLNNFYPREAKVQWKVDNALQSGNSQESVTEQDSKDSTYSLSSTLTLSKADYEKHKVYACEVTHQGLSSPVTKSFNRGEC
notes: The two copies of the CEA light chain follow from the 2+1 format and the 1:2:1:1 vector ratio; also called CEA CD3 TCB based on humanized variant 1
Which results are given for B2?
binding result [4]: no binding (tested: 30.5 pM-500 nM); binding result [5]: no binding (tested: 30.5 pM-500 nM)

B3: Humanized variant 1 of T84.66 IgG (antibody, V domains shown)
VH: QVQLVQSGAEVKKPGSSVKVSCKASGFNIKDTYMHWVRQAPGQGLEWMGRIDPANGNSKYVPKFQGRVTITADTSTSTAYMELSSLRSEDTAVYYCAPFGYYVSDYAMAYWGQGTLVTVSS
VL: EIVLTQSPATLSLSPGERATLSCRAGESVDIFGVGFLHWYQQKPGQAPRLLIYRASNRATGIPARFSGSGSGTDFTLTISSLEPEDFAVYYCQQTNEDPYTFGQGTKLEIK
notes: Tested as IgG and detected with an anti-human IgG Fc secondary antibody
How did the EC50 [6] turn out when B3 was run?
Its EC50 is 1.5 µg/mL.
